In the supplement of paper PMC9170038:

Columns and labels:
MS2 coat protein [1] = assay: apparent KD of MS2 coat protein, switch OFF state (with FMN for OFF switches, without FMN for ON switches); designed switch direction (-1 OFF switch, 1 ON switch): 1; higher = weaker reporter binding; conditions: FMN input: 0 or 200 uM; Eterna round: R93 (includes R88 designs)
Method in brief: (§1)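 In 100 mM Tris-HCl pH 7.5 with 80 mM KCl and 4 mM MgCl2, and without or with constant ligand, SNAP-549-labelled MS2 coat protein was titrated in twofold steps from 0.7 or 1.5 nM to 3 µM. Per-step times went from 0.8–1.5 h down to 10–20 min. The RNA switches were transcribed on-chip from Illumina sequencing clusters, and apparent KD is the per-design median of normalised cluster binding-curve fits.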

MS2 coat protein [2] = assay: apparent KD of MS2 coat protein, switch ON state; designed switch direction (-1 OFF switch, 1 ON switch): 1; higher = weaker reporter binding; conditions: FMN input: 0 or 200 uM; Eterna round: R93 (includes R88 designs)
Method in brief: as §1

Row | Sequence | apparent KD of MS2 coat protein (MS2 coat protein [1]) [nM] | apparent KD of MS2 coat protein (MS2 coat protein [2]) [nM]
1 | GAAAAACAUGAGGAUCACCCAUGUAGAAAUAUGGUAGGAUAUACAAAGACGAAAGUCAAAGUAGAAGGGCCAAAAG [Starry Same State 1.4 (mat747 round 1 mod)] | 19 | 13
2 | AUAAAACAUGAGGAUCACCCAUGUAGACACAUGGGAGGAUAUACUAGAUCGAAAGAUCUAGUAGAAGGCCUUUGUA [Mat - Same State 1 - JL mod - D93] | 749 | 131
3 | GAGAAGAAGAGAGAGGAUAUCCAAAGGAAAACAUGAGGAUCACCCAUGUAAAAGGUAGGAAAUUGGGAGAAGGCUCAAAAGAGGG [salish99-ss2-028(!)] | 44 | 19.9
4 | AAUAUACAUGAGGAUCACCCAUGUUAGGUGGGACUAGGAUAUCAAAAUAAAUAAAGAACAUGAGAAGGAGUAUAAA [JR_SS001_Sub017] | 178 | 75.3
5 | AAUACACAUAGUCAGGAUAUCAAAAAUAAGACAUGAGGAUCACCCAUGUAAUAAGUAAAAGUAAAUGAGAAGGGACAGGGUGACC [JR_SS002_Sub403] | 199 | 1560
6 | GAAAAACAUGAGGAUCACCCAUGUGAGAUAAACACAGGAUAUGCGAAAAUAAACAAAUAAGCAGAAGGGUGAAAAG [Mat - Same State 1 - Tesla mod - 80] | 92.4 | 27.1
7 | UUAUUACAUGAGGAUCACCCAUGUUUAGUGGUGACAGGAUAUACGAAAAAAAAAAAAAAAGUAGAAGGGUCUUAUU [SS 1.1] | 50.5 | 162
8 | AAAAGACAUGAGGAUCACCCAUGUAAAAACGUAGGAGGAUAUGUCGUGAAAAAAGACUUGGCAGAAGGCCUGUGUC [SS1 - 39] | 50.5 | 30
9 | GAAAAACAUGAGGAUCACCCAUGUAGAAAUAUGGGAGGAUAUACAAAGACGAAAGUCAAGGUAGAAGGCCUAAAAG [Mat - Same State 1 - Eli mod - 25] | 78.8 | 37.5
10 | AAAAAACAUGAGGAUCACCCAUGUCUUCGGACAUGAGGAUAUGUACAGACUUCGGUCUGUACAGAAGGCAUAAAAA [SS1 - 1010] | 12.6 | 221
11 | AAUAACUAUAGCAAGGAUAUCCGAAACAAGACAUGAGGAUCACCCAUGUAAUAAGACAAAAUAUAGGAGAAGGUGCAGGGUGAAA [JR_SS002_Sub010] | 116 | 75.3
12 | GGGAGGAAGAGAGAGGAUAUCCAAAGGAAAACAUGAGGAUCACCCAUGUAAAAGGUAGGAAAUUGGGAGAAGGCUCAAAAGAAGG [salish99-ss2-045] | 36.5 | 27.6
13 | AGAAAUAAAACGAAGGAUAUCCAAAAUAAAACAUGAGGAUCACCCAUGUAAAAGAAAAUAAAGUGGGAGAAGGUCGAAAAUAAGA [Designing denovo 15] | 54.4 | 12
14 | AAAACACAUGAGGAUCACCCAUGUAGAAAUACGGGAGGAUAUGCUAAAACGAAAGACAAUGUAGAAGGCCUAAAAG [saturn 10] | 59.6 | 37.7
15 | AAAAGACAUGAGGAUCACCCAUGUCAAAACGUAGGAGGAUAUGUAUGGAAACCAUACUGUACAGAAGGCCUUUGUC [SS1 - 77] | 14.2 | 14
16 | AGAAAUAAAAGACAGGAUAUCCAAAACUCAACAUGAGGAUCACCCAUGUAAAAGAAAAUAAAAUGGGAGAAGGGUCAAAAUAAGA [Jieux modified + C segment V2] | 33.8 | 15.3
17 | AAGAAACAUGAGGAUCACCCAUGUAAGAUAAACACAGGAUAUGCGAAAAUAAAUAAAUAAGCAGAAGGGUGAAAAG [Mat - Same State 1 - Tesla mod - 75] | 32.4 | 19.9
18 | AAAACACAUGAGGAUCACCCAUGUAAAAACAUGAGAGGAUAUGCAUGGAAAAAAAACUAUGCAGAAGGCUCAUGUG [SS1 - 4] | 32.2 | 21.2
19 | AGAUCUAGAAGGUAGGAUAUGUGAAAAAAAACAUGAGGAUCACCCAUGUGAUGAAUAAAAAGAAAAUAGAAGGACCAUCUAGAUC [Cross swing 1] | 59 | 16
20 | AUAAAGAAAACACAGGAUAUCCAAAAGAAAACAUGAGGAUCACCCAUGUAAAGAAAAUAAAAAUGGGAGAAGGGUGAAAGAAAUA [Mat - Same State 2 - JL mod - D40] | 109 | 34.8
21 | UAAUAAUAAACCAAGGAUAUGGAGUAAAGAACAUGAGGAUCACCCAUGUGUAGCGUGGAAUAGUACCAGAAGGUGGAGUGAAAUG [JR_SS002_Sub1003] | 52.3 | 54.1
22 | AAUAGACAUGAGGAUCACCCAUGUAGAAUUAUGGGAGGAUAUACAAAGACGAGAGUCAGAGUAGAAGGCCUAGGAG [salish99-ss1-150] | 48.3 | 22.1

Row | Sequence | apparent KD of MS2 coat protein (MS2 coat protein [1]) [nM] | apparent KD of MS2 coat protein (MS2 coat protein [2]) [nM]
23 | AGAAAACAUGAGGAUCACCCAUGUAGAAACAUGGGAGGAUAUACAAAGACGAAAGUCAAAGUAGAAGGCCUAAAAA [Mat - Same State 1 - Mod - D163] | 140 | 75.7
24 | GGGAGACAUGAGGAUCACCCAUGUGAGAAGAGGCGAGGAUAUCGAAAGAAAGAAGAGAAACGAGAAGGCGCGAGCU [salish99-SS1-056] | 62 | 28.1
25 | GUAUGCAUGAGGUAGGAUAUCCAAAACAAAACAUGAGGAUCACCCAUGUAAACAAACAACAAAUGGGAGAAGGACCACAUGUAUAC [Ex6 sub 5] | 27.1 | 13.1
26 | AGAAAUAAAAGAGAGGAUAUCCAAAAGAAAACAUGAGGAUCACCCAUGUAAAACAAAACAAAAUGGGAGAAGGCUCAAAAUAAGA [Topaz 15] | 31.4 | 19.8
27 | AUGAAUAGAAUCGAGGAUAUCCAGUCAUGAACAUGAGGAUCACCCAUGUAAGAGAGAGUAUAAUGGGAGAAGGCGAGUAAUAGAU [JR_SS002_Sub1702] | 84.5 | 27
28 | AACAAUCUAUCUGAGGAUAUCAAGUCAAAGACAUGAGGAUCACCCAUGUGCAGGAAAACUGCAUUUGAGAAGGCAGAUAGAUUGA [SS2: 1108] | 12.1 | 10.3
29 | AUAAAUAAAAGCAAGGAUAUCCAAAAGAAAACAUGAGGAUCACCCAUGUAAAAGAAAAUAAAAUGGGAGAAGGUGCAAAAUAAAU [viburnum 8] | 27.5 | 14.8
30 | AAACCACAUGAGGAUCACCCAUGUAAAAAAAACACAGGAUAUGGAAACACGAAAGUGAAACCAGAAGGGUGAAAAA [77%, Mat - Mod of Eli, 26] | 26.2 | 18.4
31 | CGAAGACAUGAGGAUCACCCAUGUCGUCGUAACAGAGGAUAUGGGAGCGCCAAGGGCGCAUCAGAAGGCUGAAAAC [Beusle] | 25.1 | 17.8
32 | AUUAAAUAUAGUUAGGAUAUAAUAUGUAAGACAUGAGGAUCACCCAUGUCCUAAGAAUAGUUAAAUUAGAAGGAACAGUGAAUAU [JR_SS002_Sub420] | 24.5 | 24.1
33 | GAUAGACAUGAGGAUCACCCAUGUAGAAUUAUGGGAGGAUAUACAAAGACGAGAGUCAGAGUAGAAGGCCUAGGAU [salish99-ss1-157] | 54.4 | 23.6
34 | GAAAAACAUGAGGAUCACCCAUGUAAGAUAAACACAGGAUAUGCGAAAAUAAACAAAUAAGCAGAAGGGUGAAAAG [Mat - Same State 1 - Tesla mod - 77] | 47.4 | 18.5
35 | AAGAGACAUGAGGAUCACCCAUGUAGGAUUAUGGGAGGAUAUACAAAGACGAGAGUCAGAGUAGAAGGCCUAGGAC [salish99-ss1-132(!)] | 53.8 | 19.3
36 | GAAAUAAAAAGACAGGAUAUCCAAAAGAAAACAUGAGGAUCACCCAUGUAAAGAAAAUAAAAAUGGGAGAAGGGUCAAAUAAAAG [Mat - Same State 2 - JL mod - D54] | 32.8 | 24
37 | AAAAAACAUGAGGAUCACCCAUGUGACAACAUGGGAGGAUAUACAAAGACGAGAGUCGAAGUAGAAGGCCUAAAAA [Garnet 77] | 32.6 | 66.1
38 | AAAACACAUGAGGAUCACCCAUGUAAAAACUUGGGAGGAUAUGCUUGGAAAACAUGCUAUGCAGAAGGCUCUAGUG [SS1 - 13] | 123 | 49.9
39 | CAGAGACAUGAGGAUCACCCAUGUAGGAUUAUGGGAGGAUAUACAAAGACGAGAGUCAGAGUAGAAGGCCUAGGAG [salish99-ss1-143] | 48.6 | 24
40 | ACUAGGAAGAGAGAGGAUAUCCAAAGGAAAACAUGAGGAUCACCCAUGUAAAAGGUAGGAAAUUGGGAGAAGGCUCAAGAGAGAG [salish99-ss2-085] | 24.4 | 22.9
41 | AAGAAACAUGAGGAUCACCCAUGUGAGAUAAACACAGGAUAUGCGAAAAUAAAUAAAUAAGCAGAAGGGUGAAGAA [Mat - Same State 1 - Tesla mod - 69] | 82.6 | 30.2
42 | AGAAGACAUGAGGAUCACCCAUGUGGGAUUAUGGGAGGAUAUACAAAGACGAGAGUCAGAGUAGAAGGCCUAGGAU [salish99-ss1-113(!)] | 70.8 | 24.7
43 | AACAAUCUAUCUGAGGAUAUCAUGUCAAAGACAUGAGGAUCACCCAUGUAGCAGGAAACUGCAUAUGAGAAGGCAGAUAGAUUGA [SS2: 1118] | 166 | 16.3
